Reference: article PMC11387410

Tests used:
[1] = molecular target: BAX-TMD (transmembrane domain of BAX) as NanoBiT fusion (UniProt Q07812); assay: split reporter (BiFC, NanoBiT); NanoBiT split luciferase in living HEK293FT cells; LgBiT-TMD and SmBiT-TMD plasmids transfected 1:1, 24 h; cells in Opti-MEM, 5 uM coelenterazine-h, luminescence 30 min after substrate; absolute RLU (Fig. 1C) or normalized to mTurquoise2 fluorescence and set relative to BAX-TMD/BAX-TMD = 1 (Fig. 1F, 6C)
[2] = molecular target: LgBiT-BOK-TMD (transmembrane domain of BOK as NanoBiT fusion) (UniProt Q9UMX3); assay: as above
[3] = molecular target: LgBiT-BOK-TMD (transmembrane domain of BOK as NanoBiT fusion) (UniProt Q9UMX3); assay: split reporter (BiFC, NanoBiT); NanoBiT split luciferase in living MCF-7 cells; transfected 24 h; luminescence relative to the positive control BAX-TMD/BAX-TMD

UniProt Q9UMX3, sequence (Q9UMX3 whole entry, the tested form may be a part): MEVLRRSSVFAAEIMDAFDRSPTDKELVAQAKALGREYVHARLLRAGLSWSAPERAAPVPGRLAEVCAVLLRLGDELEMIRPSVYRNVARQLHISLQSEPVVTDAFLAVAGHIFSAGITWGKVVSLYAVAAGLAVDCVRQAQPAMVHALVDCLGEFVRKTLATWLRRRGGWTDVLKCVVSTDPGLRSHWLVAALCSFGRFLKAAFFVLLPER

| Substance | relative normalized luminescence (BAX-TMD/BAX-TMD = 1) (relative to the positive control) [2] | also measured |
| --- | --- | --- |
| BAX-TMD (transmembrane domain of BAX) as NanoBiT fusion (from UniProt Q07812 1-192) (domain or fragment) | – | luminescence [1]: 16600 RLU |
| SmBiT-BCL-2-TMD (transmembrane domain of BCL-2 as NanoBiT fusion) (from UniProt P10415 1-239) (domain or fragment) | 0.47 | normalized luminescence as percent of the positive control (BAX-/BAX-TMD) (% of the positive control) [2]: 46; normalized luminescence as percent of the positive control (BAX-TMD/BAX-TMD) (% of the positive control) [3]: 30 |
| SmBiT-BCL-2-TMD I230A (from UniProt P10415 1-239) (domain or fragment) | 0.21 | – |
| SmBiT-BCL-2-TMD L223A V226A (from UniProt P10415 1-239) (domain or fragment) | 0.21 | – |
| SmBiT-BCL-2-TMD L223A V226A I230A (from UniProt P10415 1-239) (domain or fragment) | 0.13 | – |
| SmBiT-BCL-2-TMD V226A I230A (from UniProt P10415 1-239) (domain or fragment) | 0.21 | – |
